According to US9150630B2, “Use of Idbf” (Industry-Academic Cooperation Foundation, Yonsei University, priority 2008, dated 2015):
Primed or numbered codes have the meaning given here. Ends that are not written are not given here. FITC′ = not defined here

What was measured:
[1] = test system: HEK293 cells; assay: Introduction of FITC-labelled PTD-DBMP into HEK293 cells (fluorescence microscopy); type: cell-based, human; details: 1 μM or 4 μM peptide, 3 hours, FIG. 21
Procedure: To confirm the introduction of two PTD-DBMP into cells, HEK293 cells were seeded and incubated on gelatin-coated glasses for one day, and then 1 μM or 4 μM peptide were treated on the cells. After 3 hours, the cells were washed with PBS, and then fixed using fixative solution (99% methanol and 1% formaldehyde). Nucleus of cells were counterstained using DAPI, and the cells were observed using ECLIPSE TE2000-U microscope.

[2] = test system: Wnt/β-catenin signaling; assay: β-catenin immunoblotting of PTD-DBMP treated HEK293 cells; type: cell-based, human; details: 1 μM or 4 μM PTD-DBMP, 12 hours, FIG. 22
Procedure: To investigate the effect of PTD-DBMP in the cells, HEK293 cells were incubated with 1 μM or 4 μM PTD-DBMP for 12 hours, and then the cell lysates were subjected into immunoblotting using anti-β-catenin, and anti-α-tubulin antibodies.

[3] = test system: Wnt/β-catenin pathway in MC3T3E1 cells; assay: Immunocytochemistry of PTD-DBMP treated MC3T3E1 cells; type: cell-based; details: 5 μM or 10 μM, 12 hours, FIG. 23
Procedure: PTD-DBMP (SEQ ID NO: 26) was treated into MC3T3E1 cells, and then the introduction and effect of PTD-DBMP were monitored by immunocytochemistry analyses. MC3T3E1 cells were incubated on gelatin-coated glasses for 1 day, and then 5 μM or 10 μM PTD-DBMP were treated on the incubated cells for 12 hours. The PTD-DBMP-treated cells were washed with PBS, and then fixed using a fixative solution (99% methanol and 1% formaldehyde). The fixed cells were permeabilized with 0.2% saponin solution, and then incubated with anti-β-catenin antibody (home-made; 1:100). The cells were incubated with Alexafluor 488 conjugated secondary antibody, and then the nucleus of cells were counterstained with DAPI.

[4] = test system: Wnt/β-catenin pathway; assay: pTOPFLASH/pFOPFLASH luciferase reporter assay in MC3T3E1 cells; type: cell-based; details: 5 μM PTD-DBMP or 100 ng/ml Wnt3a, 12 hours, FIG. 24
Procedure: To investigate the effect of PTD-DBMP treatment on Wnt/β-catenin pathway of MC3T3E1 cells, 0.5 μg of pTOPFLASH or pFOPFLASH with 50 ng of pCMV-β-Gal was transfected into the cells. After 12 hours, the transfected cells were treated with 100 ng/ml Wnt3a, or 5 μM PTD-DBMP, and then incubated for 12 hours. Then the cells were washed with PBS, and then lysed in Lysis Buffer (Promega). The cell lysates were mixed with Luciferase Substrate (Promega) to monitor the luciferase activities.

[5] = test system: MC3T3E1 cells (osteoblast differentiation); assay: RT-PCR of osteoblast differentiation markers in MC3T3E1 cells; type: cell-based; details: 10 μM PTD-DBMP or 100 ng/ml Wnt3a, 2 and 4 days, FIG. 25
Procedure: To study the effect of PTD-DBMP on osteoblast differentiation, 100 ng/ml Wnt3a, or 10 μM PTD-DBMP was treated on MC3T3E1 cells. The cells were harvested after 2, and 4 days later, and then subjected into RT-PCR to monitor the amounts of ALP, Fgf18, RANKL, and HPRT mRNAs. The mRNA amounts of osteoblast differentiation markers (ALP, Fgf18, RANKL) were increased by PTD-DBMP treatment, as well as by Wnt3a treatment (FIG. 25).

[6] = test system: Wnt/β-catenin pathway and osteoblast differentiation in MC3T3E1 cells; assay: Idbf overexpression and Wnt3a treatment in MC3T3E1 cells, RT-PCR; type: cell-based; details: FIG. 17C; for ALP and Fgf18 mRNA: 100 ng/ml Wnt3a 12 hours, or ascorbic acid and β-glycerol-phosphate 2 days
Procedure: Idbf was overexpressed in MC3T3E1 cells to investigate the function of Idbf in Wnt/β-catenin pathway and osteoblast differentiation. MC3T3E1 cells were transfected with pcDNA3.1 or pcDNA3.1-Idbf-Myc, and then transfected cells were incubated in α-MEM media containing 100 ng/ml Wnt3a for 12 hours or in α-MEM containing 50 mg/l ascorbic acid and 10 mM […] for 2 days. Wnt3a treatment results in mRNA increments of ALP and Fgf18, which were more significant than ascorbic acid and β-glycerol-phosphate treatment (FIG. 17C). […] However, the common target genes of Wnt/β-catenin pathway, cyclin D and c-myc were not regulated by Wnt3a or ascorbic acid and β-glycerol-phosphate treatment (FIG. 17C).

[7] = test system: Wnt/β-catenin pathway; assay: Wnt3a treatment and Idbf overexpression in HEK293 cells (reporter assay, Idbf-Dvl-1 binding); type: cell-based, human; details: for effect on Wnt/β-catenin pathway in HEK293 cells: 100 ng/ml Wnt3a 12 hours or 0.5 μg plasmid, FIG. 19
Procedure: Function of Idbf in Wnt/β-catenin pathway was also studied in HEK293 cells, which is a established human embryonic kidney cell-line. HEK293 cells were transfected with 0.5 μg pcDNA3.1 or pcDNA3.1-Idbf-Myc. For reporter assay, 0.5 μg pTOPFLASH or pFOPFLASH with 50 ng pCMV-β-Gal was co-transfected. The transfeced cells were incubated in α-MEM with or without 100 ng/ml Wnt3a for 12 hours. […] The enhancement of Idbf-Dvl-1 binding by Wnt3a treatment was also not observed (FIG. 20).

[8] = test system: β-catenin; assay: Idbf overexpression or knock-down in HEK293 cells: β-catenin immunoblot and TOPFLASH reporter; type: cell-based, human; details: FIG. 5; for transcriptional activity of β-catenin: pTOPFLASH/pFOPFLASH luciferase; for protein level of β-catenin: transfection, immunoblotting
Procedure: 0.9 kb PCR product was restricted with XbaI and BamHI, and subcloned into a pcDNA3.1/myc His(−) vector (Invitrogen) (pcDNA3.1-Idbf-Myc). Idbf overexpression was performed by transfection of pcDNA3.1-Idbf-Myc into HEK293 cells using Lipofectamine plus reagent (Invitrogen) as the manufacturers' instruments.
Idbf knock-down was performed by transfection of Idbf siRNA into HEK293 cells using Lipofectamine plus reagent (Invitrogen) as the manufacturers' instruments. Idbf siRNA was synthesized using Silence™ siRNA Construction Kit (Ambion). To elevate the efficiency of knock-down, the mixture of two kinds of siRNAs, which are targeting different site of Idbf mRNA, were used.
For immunoblotting, cells were harvested, and lysed in RIPA buffer (50 mM Tris pH 7.5, 150 mM NaCl, 1 mM EDTA, and 1% Triton X-100). All chemicals were purchased from Sigma-Aldrich.
To detect proteins, whole cell lysates or immunoprecipitants were subjected into immunoblotting using anti-β-catenin, anti-Myc, or anti-α-tubulin antibodies. To monitor the transcriptional activity of β-catenin, 0.5 μg of pTOPFLASH or pFOPFLASH (kind gill from Dr. B. Vogelstein and Dr. K. Kinzler in Johns Hopkins Oncology Center, Baltimore, Md.) with 50 ng of pCMV-β-Gal was transfected into HEK293 cells. The luciferease activities, which indicate the transcriptional activity of β-catenin, were normalized by β-galactosidase activities, which show the efficiency of transfection. […] Oppositely, the protein level of β-catenin and its transcriptional activity were increased by Idbf knock-down (FIG. 5B). Error bars in FIG. 5 indicates standard deviation. WCL and IP are abbreviations of whole cell lysate and immunoprecipitation, respectively.

[9] = target: T1, Dvl-1 (Mus musculus, UniProt P51141); assay: Idbf-Dvl-1 binding by immunoprecipitation with anti-Idbf antibody; details: with or without Wnt3a, FIG. 18B (MC3T3E1 osteoblast)
T1 construct: endogenous in cells; host or cells: MC3T3E1 osteoblasts
T1 sequence (P51141 1-695): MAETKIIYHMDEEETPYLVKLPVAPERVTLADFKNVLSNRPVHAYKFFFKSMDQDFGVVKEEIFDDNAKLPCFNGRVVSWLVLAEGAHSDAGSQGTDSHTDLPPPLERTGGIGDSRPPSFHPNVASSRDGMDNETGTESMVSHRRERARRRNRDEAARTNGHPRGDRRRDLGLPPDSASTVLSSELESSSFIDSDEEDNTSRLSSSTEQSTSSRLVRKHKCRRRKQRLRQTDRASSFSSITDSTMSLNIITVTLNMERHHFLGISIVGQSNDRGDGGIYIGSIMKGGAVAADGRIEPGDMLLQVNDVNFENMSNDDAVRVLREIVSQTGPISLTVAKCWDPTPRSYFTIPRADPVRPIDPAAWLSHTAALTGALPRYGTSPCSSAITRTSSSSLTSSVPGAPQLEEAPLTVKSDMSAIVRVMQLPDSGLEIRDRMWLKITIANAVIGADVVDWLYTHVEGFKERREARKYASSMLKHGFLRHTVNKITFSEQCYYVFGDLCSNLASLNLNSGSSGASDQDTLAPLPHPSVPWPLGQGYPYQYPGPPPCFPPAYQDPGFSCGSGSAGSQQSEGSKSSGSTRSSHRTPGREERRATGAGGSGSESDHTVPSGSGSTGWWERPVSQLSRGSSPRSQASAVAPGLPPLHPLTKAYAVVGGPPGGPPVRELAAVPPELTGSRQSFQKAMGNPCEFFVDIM
Source text: To investigate the importance of Idbf-Dvl-1 binding in Idbf function, a mutant of Idbf, in which Dvl binding minimal peptide (DBMP; RKTGHQICKFRKC, SEQ ID NO: 4) was removed, was produced (pcDNA3.1-Idbf-ΔDBMP-Myc).
To monitor Idbf-Dvl-1 binding, cell lysates were subjected into immunoprecipitation using anti-Idbf antibody. Whole cell lysates were subjected into immunoblotting to detect the amounts of proteins, including β-catenin, α-tubulin, and Dvl-1.

PTD-DBMP: PTD and glycine linker on the amino terminus of DBMP, FITC on the carboxyl terminus; two peptides in section 7, SEQ ID NO: 26 in section 8 (RRRRRRRRGGGGRKTGHQICKFRKCK-{FITC′}; cysteine pairing not given here)
introduction of peptide into cells (green fluorescence in nucleus and cytosol) [1]: successfully introduced into the cells
amount of β-catenin [2]: increased
activation of Wnt/β-catenin pathway (β-catenin in nucleus) [3]: accumulation of β-catenin (red) in nucleus of the cells
introduction of peptide into cells (green fluorescence by FITC on nucleus and cytosol) [3]: successfully introduced into the cells
activation of Wnt/β-catenin pathway (luciferase activity normalized by β-galactosidase) [4]: as significant as the activation by Wnt3a treatment
mRNA amounts of osteoblast differentiation markers (ALP, Fgf18, RANKL) [5]: increased

B1: Wnt3a: Wnt ligand used at 100 ng/ml to activate the Wnt/β-catenin signaling pathway (protein, UniProt P56704 19-352, looked up)
Protein Wnt-3a: SYPIWWSLAVGPQYSSLGSQPILCASIPGLVPKQLRFCRNYVEIMPSVAEGIKIGIQECQHQFRGRRWNCTTVHDSLAIFGPVLDKATRESAFVHAIASAGVAFAVTRSCAEGTAAICGCSSRHQGSPGKGWKWGGCSEDIEFGGMVSREFADARENRPDARSAMNRHNNEAGRQAIASHMHLKCKCHGLSGSCEVKTCWWSQPDFRAIGDFLKDKYDSASEMVVEKHRESRGWVETLRPRYTYFKVPTERDLVYYEASPNFCEPNPETGSFGTRDRTCNVSSHGIDGCDLLCCGRGHNARAERRREKCRCVFHWCCYVSCQECTRVYDVHTCK
activation of Wnt/β-catenin pathway (luciferase activity normalized by β-galactosidase) [4]: activation
mRNA amounts of osteoblast differentiation markers (ALP, Fgf18, RANKL) [5]: increased
cyclin D and c-myc (common target genes of Wnt/β-catenin pathway) ([6]; 100 ng/ml Wnt3a 12 hours): not regulated
ALP and Fgf18 mRNA [6]: increments
effect on Wnt/β-catenin pathway in HEK293 cells [7]: very marginal
enhancement of Idbf-Dvl-1 binding ([7]; Wnt3a treatment, FIG. 20): not observed

B2: Idbf: novel Dvl-binding protein (SEQ ID NO: 1), overexpressed by transfection of pcDNA3.1-Idbf-Myc (protein, listed as Homo sapiens)
chain: MSSLGGGSQDAGGSSSSSTNGSGGSGSSGPKAGAADKSAVVAAAAPASVADDTPPPERRNKSGIISEPLNKSLRRSRPLSHYSSFGSSGGSGGGSMMGGESADKATAAAAAASLLANGHDLAAAMAVDKSNPTSKHKSGAVASLLSKAERATELAAEGQLTLQQFAQSTEMLKRVVQEHLPLMSEAGAGLPDMEAVAGAEALNGQSDFPYLGAFPINPGLFIMTPAGVFLAESALHMAGLAEYPMQGELASAISSGKKKRKRCGMCAPCRRRINCEQCSSCRNRKTGHQICKFRKCEELKKKPSAALEKVMLPTGAAFRWFQ
modifications: Myc tag
transcriptional activity of β-catenin [8]: reduced
protein level of β-catenin [8]: reduced
ALP and Fgf18 mRNA [6]: suppressed increment
binding to Dvl-1 [9]: binds to Dvl-1 in Wnt3a-dependent manner
effect on Wnt/β-catenin pathway in HEK293 cells [7]: very marginal

B3: Idbf siRNA: mixture of two siRNAs targeting different sites of Idbf mRNA (SEQ ID NO: 12-15) (nucleic acid)
chain 1: UUGUAGGAAUCGAAAGACUUU
chain 2: AGUCUUUCGAUUCCUACAAUU
chain 3: GCAGUUUGCGCAGUCCACAUU
chain 4: UGUGGACUGCGCAAACUGCUU
modifications: listed as RNA, chemistry not given here
transcriptional activity of β-catenin [8]: increased
protein level of β-catenin [8]: increased
